In patent US20230213527A1, “COMPOSITIONS AND METHODS FOR POLYPEPTIDE ANALYSIS” (Quantum-Si Incorporated, priority 2021, published 2023):

Tests used:
[1] = biological target: … (SEQ ID NO: 823), state with N-terminal leucine (…); assay: single-molecule on-chip sequencing with PS691, PS610 and PS961
[2] = biological target: RLp… (SEQ ID NO: 824), state with N-terminal leucine (Lp…); assay: as above

B1: PS961 (designed binder)
chain: MPTAASATESAIEDTPAPARPEVDGRTKPKRQPRYHVVLWDDDDHTYQYVVVMLRSLFGHPPSRGYRMAKEMDTQGRVIVLTTTREHAELKRDQIHAFGRDRLLARSKGSMKASIEAEE
Q: What does the source list for B1?
A: RS mean PD [1]: 2.45 s; RS mean PD [2]: 3.4 s
